Columns and labels:
Conditions in all cases: tags: American Diagnostica 4500PC/4900PC, E. coli expressed
[1] = target: T1, TFPI (tissue factor pathway inhibitor, full-length) (Homo sapiens, UniProt P10646 SEQ:1-276); test: competition; fails binding-competition criterion; CAT yes
Experimental: (§1) The substituted ARC17480 molecules were assayed for binding and function. The assays used for this evaluation were the calibrated automated thrombogram (CAT) assay, a dot-blot binding-competition assay and a FXa activity assay. The results of these assays are summarized in Table 40 and depicted in FIG. 147. A mutation was considered tolerated for activity if it met the criteria of at least two of the three assays that were carried out. Mutations that are tolerated (“yes”) and not tolerated (“no”) are identified in Table 40. The experimental details and the criteria used for each assay are described in the following paragraphs. The molecules described in this example were first tested in the CAT assay and the dot-blot binding-competition assay. In most cases, molecules were only tested in the FXa assay if there was a discrepancy between the results in the CAT assay and the dot-blot binding-competition assay.
(§2) Each molecule was evaluated for binding to tissue factor pathway inhibitor (TFPI) in a binding-competition assay. […] The IC₅₀ of each aptamer was compared to the IC₅₀ of ARC17480 that was evaluated in the same experiment. A mutation was considered tolerated in the binding-competition assay if the IC₅₀ of that molecule was not more than 5-fold greater than that of ARC17480 evaluated in the same experiment. […]

[2] = target: T1, TFPI (tissue factor pathway inhibitor, …); test: competition; meets binding-competition criterion; CAT no
Experimental: as §1, §2

[3] = target: T1, TFPI (tissue factor pathway inhibitor, …); test: competition; negative control, no competition with ARC17480 in dot blot
[4] = target: T1, TFPI (tissue factor pathway inhibitor, …); test: competition; meets binding-competition criterion; CAT no; remark: listed apart in the source
Experimental: (§3) Each molecule was evaluated for binding to tissue factor pathway inhibitor (TFPI) in a binding-competition assay. For these experiments, 10 nM human TFPI (American Diagnostica, Stamford, Conn., catalog #4500PC) was incubated with trace amounts of radiolabeled ARC17480 and 5000 nM, 1666.67 nM, 555.56 nM, 185.19 nM, 61.73 nM, 20.58 nM, 6.86 nM, 2.29 nM, 0.76 nM or 0.25 nM of unlabeled competitor aptamer. ARC17480 was included as a competitor in every experiment as a control. For each molecule, the percentage of radiolabeled ARC17480 bound at each competitor aptamer concentration was used for analysis. The percentage of radiolabeled ARC17480 bound was plotted as a function of aptamer concentration and fit to the equation y=(max/(1+x/IC₅₀))+int, where y=the percentage of radiolabeled ARC17480 bound, x=the concentration of aptamer, max=the maximum radiolabeled ARC17480 bound, and int=the y-intercept, to generate an IC₅₀ value for binding-competition. The IC₅₀ of each aptamer was compared to the IC₅₀ of ARC17480 that was evaluated in the same experiment. A substitution was considered tolerated in the binding-competition assay if the IC₅₀ of that molecule was not more than 5-fold greater than that of ARC17480 evaluated in the same experiment. Tolerated substitutions are indicated in Table 38 as meeting the assay criteria (“yes”) or not meeting the assay criteria (“no”).

[5] = target: T1, TFPI (tissue factor pathway inhibitor, …); test: competition; fails binding-competition criterion; FXa yes
Experimental: as §3

[6] = target: T1, TFPI (tissue factor pathway inhibitor, …); test: competition; competition with 20 nM ARC19499, plate assay
Experimental: In order to assess the affinity of ARC19498 towards TFPI protein, an ARC19499:TFPI binding competition assay was set up. Recombinant human TFPI protein (0.5 mg/mL) was diluted in DPBS to a final concentration of 15 μg/mL, and 100 μL was added to a 96-well Maxisorb plate and incubated overnight at 4° C. The TFPI solution was then removed and the plate was subsequently washed 3 times with 200 μL wash buffer (DPBS+0.05% Tween 20) at room temperature. The plate was then blocked with 200 μL of 10 mg/mL BSA in DPBS for 30 minutes at room temperature. The BSA blocking solution was then removed and the plate was washed again 3 times with 200 μL wash buffer. ARC19498 was serially diluted and mixed at different concentrations with 20 nM ARC19499 in DPBS in 0.1% BSA. The ARC19498:ARC19499 mixtures were added to the plate and incubated for 3 hours at room temperature. After washing 3 times with 200 μL wash buffer, 100 μL of 0.5 μg/mL rabbit monoclonal anti-PEG antibody (Epitomics) was added to the plate and incubated for 60 minutes at room temperature. The anti-PEG antibody solution was then removed and the plate was washed as described above. […] The assay plate was then read at 450 nm using a Victor³V 1420 multilabel counter (Perkin Elmer). […] The IC₅₀ was calculated based on 4-parameter logistics using Graphpad Prism 4 software.

[7] = target: T1, TFPI (tissue factor pathway inhibitor, …); test: competition; fails binding-competition criterion; CAT and FXa yes
Experimental: as §3

[8] = target: T1, TFPI (tissue factor pathway inhibitor, …); test: competition; meets binding-competition criterion; CAT and FXa no
Experimental: as §1
Each molecule was evaluated for binding to tissue factor pathway inhibitor (TFPI) in a binding-competition assay. For these experiments, 10 nM human TFPI (American Diagnostica, Stamford, Conn., catalog #4900PC) was incubated with trace amounts of radiolabeled ARC17480 and 5000 nM, 1666.67 nM, 555.56 nM, 185.19 nM, 61.73 nM, 20.58 nM, 6.86 nM, 2.29 nM, 0.76 nM or 0.25 nM of unlabeled competitor aptamer. ARC17480 was included as a competitor in every experiment as a control. For each molecule, the percentage of radiolabeled ARC17480 bound at each competitor aptamer concentration was used for analysis. […] The IC₅₀ of each aptamer was compared to the IC₅₀ of ARC17480 that was evaluated in the same experiment. A mutation was considered tolerated in the binding-competition assay if the IC₅₀ of that molecule was not more than 5-fold greater than that of ARC17480 evaluated in the same experiment. […]

[9] = target: T1, TFPI (tissue factor pathway inhibitor, …); test: competition; dot-blot; FXa assay criterion not met
Experimental: (§4) Each molecule was evaluated for binding to tissue factor pathway inhibitor (TFPI) in a binding-competition assay. For these experiments, 10 nM human TFPI (American Diagnostica, Stamford, Conn., catalog #4500PC) was incubated with trace amounts of radiolabeled ARC17480 and 5000 nM, 1666.67 nM, 555.56 nM, 185.19 nM, 61.73 nM, 20.58 nM, 6.86 nM, 2.29 nM, 0.76 nM or 0.25 nM of unlabeled competitor aptamer. ARC17480 was included as a competitor in every experiment as a control. For each molecule, the percentage of radiolabeled ARC17480 bound at each competitor aptamer concentration was used for analysis. The percentage of radiolabeled ARC17480 bound was plotted as a function of aptamer concentration and fit to the equation y=(max/(1+x/IC₅₀))+int, where y=the percentage of radiolabeled ARC17480 bound, x=the concentration of aptamer, max=the maximum radiolabeled ARC17480 bound, and int=the y-intercept, to generate an IC₅₀ value for binding-competition. The IC₅₀ of each aptamer was compared to the IC₅₀ of ARC17480 that was evaluated in the same experiment. A substitution was considered tolerated in the binding-competition assay if the IC₅₀ of that molecule was not more than 5-fold greater than that of ARC17480 evaluated in the same experiment. Tolerated substitutions are indicated in Table 37 as meeting the assay criteria (“yes”) or not meeting the assay criteria (“no”).

[10] = target: T1, TFPI (tissue factor pathway inhibitor, …); test: competition; dot-blot; CAT and FXa criteria not met
Experimental: as §4

[11] = target: T1, TFPI (tissue factor pathway inhibitor, …); test: competition; dot-blot
Experimental: as §1
(§5) Each molecule was evaluated for binding to tissue factor pathway inhibitor (TFPI) in a binding-competition assay. For these experiments, 10 nM human TFPI (American Diagnostica, Stamford, Conn., catalog #4900PC) was incubated with trace amounts of radiolabeled ARC17480 and 5000 nM, 1666.67 nM, 555.56 nM, 185.19 nM, 61.73 nM, 20.58 nM, 6.86 nM, 2.29 nM, 0.76 nM or 0.25 nM of unlabeled competitor aptamer. ARC17480 was included as a competitor in every experiment as a control. For each molecule, the percentage of radiolabeled ARC17480 bound at each competitor aptamer concentration was used for analysis. The percentage of radiolabeled ARC17480 bound was plotted as a function of aptamer concentration and fit to the equation y=(max/(1+x/IC₅₀))+int, where y=the percentage of radiolabeled ARC17480 bound, x=the concentration of aptamer, max=the maximum radiolabeled ARC17480 bound, and int=the y-intercept, to generate an IC₅₀ value for binding-competition. The IC₅₀ of each aptamer was compared to the IC₅₀ of ARC17480 that was evaluated in the same experiment. A mutation was considered tolerated in the binding-competition assay if the IC₅₀ of that molecule was not more than 5-fold greater than that of ARC17480 evaluated in the same experiment. Tolerated mutations are indicated in Table 40 as meeting the assay criteria (“yes”) or not meeting the assay criteria (“no”).

[12] = target: T1, TFPI (tissue factor pathway inhibitor, …); test: competition; dot-blot; CAT criterion not met
Experimental: as §1, §5

T1 sequence (P10646 29-304): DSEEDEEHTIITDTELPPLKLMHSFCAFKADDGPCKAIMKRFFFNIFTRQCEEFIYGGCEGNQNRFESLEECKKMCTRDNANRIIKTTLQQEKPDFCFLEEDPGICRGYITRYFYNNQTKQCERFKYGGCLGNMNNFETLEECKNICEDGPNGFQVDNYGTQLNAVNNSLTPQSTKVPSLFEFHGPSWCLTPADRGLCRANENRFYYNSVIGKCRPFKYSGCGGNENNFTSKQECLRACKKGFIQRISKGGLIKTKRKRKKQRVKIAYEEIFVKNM

## GGAAUAUACUUGGCUCGUUAUGUGCGUAUAUA (mixed, 2'-OMe A/G/U, 2'-deoxy C, 3' idT) [ARC33169]
[1]
  binding signal: > 5 fold IC50 of ARC17480

## GGAAUAUACUUGGCUCGUUAGGUGCGUACAUA (mixed, 2'-OMe A/G/U and mC29, other C 2'-deoxy, 3' idT) [ARC33177]
[2]
  binding signal: ≤ 5 fold IC50 of ARC17480

## GGAAUAUACUUGGCUGCUUAGGUGCGUAUAUA (mixed, 2'-OMe A/G/U, 2'-deoxy C, 3' idT) [ARC32603]
[3]
  binding result: no binding

## GGAAUUACUUGGCUCGUUAGGUGCGUAUAUA (mixed, 2'-OMe A/G/U, 2'-deoxy C, 3' idT) [ARC33122]
[4]
  binding signal: ≤ 5 fold IC50 of ARC17480

## GGAAUAUACUUGGCUCGUAGGUGCGUAUAUA (mixed, 2'-OMe A/G/U, 2'-deoxy C, 3' idT) [ARC33132]
[5]
  binding signal: > 5 fold IC50 of ARC17480

## GGAAUAUACUUGGCUCGUUAGGUGCGUAUAUA (mixed, 5'-hexylamine, 2'-OMe A/G/U, 2'-deoxy C, 3' idT) [ARC19498]
[6]
  IC50: 20 nM

## GGAAUAUACUUGGCUCGUUAGGUGCGUAAUA (mixed, 2'-OMe A/G/U, 2'-deoxy C, 3' idT) [ARC33141]
[4]
  binding signal: ≤ 5 fold IC50 of ARC17480

## UAUACUUGGCUCGUUAGGUGCGUAU (mixed, 2'-OMe A/G/U, 2'-deoxy C, 3' idT) [ARC33889]
[7]
  binding signal: > 5 fold IC50 of ARC17480

## GGAAUUUACUUGGCUCGUUAGGUGCGUAUAUA (mixed, 2'-OMe A/G/U, 2'-deoxy C, 3' idT) [ARC33154]
[2]
  binding signal: ≤ 5 fold IC50 of ARC17480

## GGAAUACACUUGGCUCGUUAGGUGCGUAUAUA (mixed, 2'-OMe A/G/U and mC7, other C 2'-deoxy, 3' idT) [ARC33155]
[8]
  binding signal: ≤ 5 fold IC50 of ARC17480

## GGAAUAUUCUUGGCUCGUUAGGUGCGUAUAUA (mixed, 2'-OMe A/G/U, 2'-deoxy C, 3' idT) [ARC33156]
[8]
  binding signal: ≤ 5 fold IC50 of ARC17480

## GGAAUAUACUUGGTUCGUUAGGUGCGUAUAUA (mixed, 2'-OMe A/G/U, dT14, 2'-deoxy C, 3' idT) [ARC33162]
[8]
  binding signal: ≤ 5 fold IC50 of ARC17480

## GGAAUAUACUUGGCUCGUUAGGUGCGUAUAUA (XNA, 2'-OMe except dC9, dC14, dC25; 2'-OMe C16; 3' idT) [ARC18540]
[9]
  binding signal: ≤ 5 fold IC50 vs ARC17480

## GGAAUAUACTUGGCUCGUUAGGUGCGUAUAUA (XNA, 2'-OMe except dC9, dC14, dC16, dC25 and dT10; 3' idT) [ARC19456]
[10]
  binding signal: ≤ 5 fold IC50 vs ARC17480

## GGAAUAUACUUGGCUCGUUAGGUGCGUAUAUA (XNA, 2'-OMe except dC9, dC14, dC16; 2'-OMe C25; 3' idT) [ARC18541]
[9]
  binding signal: ≤ 5 fold IC50 vs ARC17480

## GGAAUAUACUUGGCUCGTUAGGUGCGUAUAUA (XNA, 2'-OMe except dC9, dC14, dC16, dC25 and dT18; 3' idT) [ARC19462]
[10]
  binding signal: ≤ 5 fold IC50 vs ARC17480

## GGAAUAUACUUGGCUCGUUAGGUGCGUAUAUA (XNA, 2'-OMe except dC9, dC25; 2'-OMe C14 and C16; 3' idT) [ARC18545]
[9]
  binding signal: ≤ 5 fold IC50 vs ARC17480

## GGACUAUACUUGGCUCGUUAGGUGCGUAUAUA (XNA, 2'-OMe except dC9, dC14, dC16, dC25; 3' idT) [ARC34863]
[11]
  binding signal: ≤ 5 fold IC50 vs ARC17480

## GGAAAAUACUUGGCUCGUUAGGUGCGUAUAUA (XNA, 2'-OMe except dC9, dC14, dC16, dC25; 3' idT) [ARC34864]
[12]
  binding signal: ≤ 5 fold IC50 vs ARC17480

## GGAAGAUACUUGGCUCGUUAGGUGCGUAUAUA (XNA, 2'-OMe except dC9, dC14, dC16, dC25; 3' idT) [ARC34865]
[11]
  binding signal: ≤ 5 fold IC50 vs ARC17480

## GGAAUGUACUUGGCUCGUUAGGUGCGUAUAUA (XNA, 2'-OMe except dC9, dC14, dC16, dC25; 3' idT) [ARC34866]
[11]
  binding signal: ≤ 5 fold IC50 vs ARC17480

## GGAAUCUACUUGGCUCGUUAGGUGCGUAUAUA (XNA, 2'-OMe except dC9, dC14, dC16, dC25; 3' idT) [ARC34867]
[12]
  binding signal: ≤ 5 fold IC50 vs ARC17480

## GGAAUAUGCUUGGCUCGUUAGGUGCGUAUAUA (XNA, 2'-OMe except dC9, dC14, dC16, dC25; 3' idT) [ARC34870]
[12]
  binding signal: ≤ 5 fold IC50 vs ARC17480

## GGAAUAUCCUUGGCUCGUUAGGUGCGUAUAUA (XNA, 2'-OMe except dC9, dC14, dC16, dC25; 3' idT) [ARC34871]
[12]
  binding signal: > 5 fold IC50 vs ARC17480

Source: US20110281938, “APTAMERS TO TISSUE FACTOR PATHWAY INHIBITOR AND THEIR USE AS BLEEDING DISORDER THERAPEUTICS” (Baxter Healthcare S.A., published 2011)
